We go through 125 sequences from the supplement of paper PMC9112550, “Optimization of the antimicrobial peptide Bac7 by deep mutational scanning” (BMC Biology, 2022).

The data set deals with Escherichia coli TOP10. The data set is described as follows: shrunken log2 fold change of peptide-encoding DNA abundance (4.5 h post-induction vs induction); higher = less antimicrobial activity (less host growth inhibition). As to conditions: time post-induction: 4.5 h; library: site-saturation at positions 5, 18, 19, 20.
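Also: peptides expressed intracellularly from a pBAD plasmid library in pooled LB shake-flask culture, induced with 0.3% L-arabinose, DNA abundance read by NGS, three biological replicates, DESeq2 with apeglm shrinkage.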

Turning to RRIRIRPPRLPRPRPRPYGGPRP, the “shrunken log2 fold change” value is 0.00177. As for RRIRPRPPRLPRPRPRPKRIPRP, the figure is -0.155. Then RRIRGRPPRLPRPRPRPRIDPRP, with 0.731; and RRIRKRPPRLPRPRPRPIMQPRP, with -0.0251; and RRIRPRPPRLPRPRPRPHDWPRP, with -0.0184. As for RRIRRRPPRLPRPRPRPRCPPRP, the “shrunken log2 fold change” value was 0.605. Regarding RRIRLRPPRLPRPRPRPMGYPRP, the “shrunken log2 fold change” value was -0.126.

For RRIRYRPPRLPRPRPRPRSWPRP, the “shrunken log2 fold change” value is -0.0913. Then RRIRFRPPRLPRPRPRPSESPRP, with -0.0918; and RRIRYRPPRLPRPRPRPQLCPRP, with -0.0902. As for RRIRKRPPRLPRPRPRPYANPRP, the figure is -0.091. Consider RRIRYRPPRLPRPRPRPVVDPRP, for which the “shrunken log2 fold change” value was -0.0233. Then RRIRERPPRLPRPRPRPMYTPRP, with -0.469; and RRIRQRPPRLPRPRPRPSECPRP, with -0.0674. As for RRIRYRPPRLPRPRPRPNSDPRP, the figure is -0.233. Then RRIRFRPPRLPRPRPRPFERPRP, with -0.0442; and RRIRLRPPRLPRPRPRPNEDPRP, with -0.132; and RRIRGRPPRLPRPRPRPNCKPRP, with 0.21. As for RRIRIRPPRLPRPRPRPGCMPRP, the “shrunken log2 fold change” value is -0.134. As for RRIRKRPPRLPRPRPRPPKGPRP, the figure is 0.333. Take RRIRSRPPRLPRPRPRPGQGPRP: the “shrunken log2 fold change” value was 0.0895. Then RRIRRRPPRLPRPRPRPRYTPRP, with -0.186. For RRIRWRPPRLPRPRPRPYNHPRP, the “shrunken log2 fold change” value was -1.43. As for RRIRYRPPRLPRPRPRPWRAPRP, the figure is -0.142; as for RRIRARPPRLPRPRPRPEKRPRP, 0.128; as for RRIRGRPPRLPRPRPRPNKFPRP, -0.106. As for RRIRWRPPRLPRPRPRPNDIPRP, the figure is -0.565; as for RRIRRRPPRLPRPRPRPWCGPRP, 0.282; as for RRIRARPPRLPRPRPRPWTHPRP, 0.04. Then RRIRQRPPRLPRPRPRPFVHPRP, with -0.0465; and RRIRGRPPRLPRPRPRPSYAPRP, with 0.316; and RRIRYRPPRLPRPRPRPSAKPRP, with -0.117. On to RRIRQRPPRLPRPRPRPKNLPRP, for which the “shrunken log2 fold change” value is -0.186. As for RRIRVRPPRLPRPRPRPDQVPRP, the figure is -0.202.

Take RRIRGRPPRLPRPRPRPQPCPRP: the “shrunken log2 fold change” value is 0.466.

As for RRIRNRPPRLPRPRPRPRPMPRP, the “shrunken log2 fold change” value worked out at 0.522. As to RRIRSRPPRLPRPRPRPKRNPRP, the “shrunken log2 fold change” value was 0.228. Consider RRIRHRPPRLPRPRPRPRLNPRP, for which the “shrunken log2 fold change” value was -0.249. RRIRERPPRLPRPRPRPVVGPRP: the “shrunken log2 fold change” value is -0.106. Then RRIRYRPPRLPRPRPRPHWLPRP, with -0.0432; and RRIRTRPPRLPRPRPRPYPTPRP, with -0.374. Then RRIRWRPPRLPRPRPRPNHCPRP, with -0.0525. As for RRIRHRPPRLPRPRPRPIQRPRP, the figure is -0.204. Take RRIRWRPPRLPRPRPRPKWYPRP: the “shrunken log2 fold change” value is -0.235.

For RRIRDRPPRLPRPRPRPNQAPRP, the “shrunken log2 fold change” value was -0.0261. As to RRIRGRPPRLPRPRPRPASGPRP, the “shrunken log2 fold change” value was 0.625. As for RRIRPRPPRLPRPRPRPPGCPRP, the figure is 0.264; as for RRIRGRPPRLPRPRPRPTEQPRP, 0.883; as for RRIRFRPPRLPRPRPRPRPIPRP, 0.341.

On to RRIRCRPPRLPRPRPRPWMNPRP, for which the “shrunken log2 fold change” value was 0.0105. As for RRIRPRPPRLPRPRPRPDYYPRP, the figure is -0.346.

Consider RRIRARPPRLPRPRPRPRERPRP, for which the “shrunken log2 fold change” value worked out at 0.334. RRIRWRPPRLPRPRPRPNRQPRP: the “shrunken log2 fold change” value worked out at 0.175. As for RRIRKRPPRLPRPRPRPMHVPRP, the “shrunken log2 fold change” value was -0.0434. For RRIRSRPPRLPRPRPRPSYQPRP, the “shrunken log2 fold change” value is -0.434. As for RRIRTRPPRLPRPRPRPGPLPRP, the figure is 0.185; as for RRIRTRPPRLPRPRPRPRMDPRP, -0.38; as for RRIRSRPPRLPRPRPRPSVCPRP, 0.0526. Then RRIRTRPPRLPRPRPRPWYRPRP, with -0.23. For the sequence RRIRRRPPRLPRPRPRPSSRPRP, the “shrunken log2 fold change” value was -0.00108. As for RRIRLRPPRLPRPRPRPCQSPRP, the “shrunken log2 fold change” value is -0.0018. As for RRIRIRPPRLPRPRPRPGMGPRP, the figure is 0.132; as for RRIRKRPPRLPRPRPRPLEMPRP, 0.659. Then RRIRGRPPRLPRPRPRPCFWPRP, with 0.67; and RRIRQRPPRLPRPRPRPWVQPRP, with -0.0131. For the sequence RRIRDRPPRLPRPRPRPCAQPRP, the “shrunken log2 fold change” value stood at 1.19. For the sequence RRIRHRPPRLPRPRPRPRTFPRP, the “shrunken log2 fold change” value was 0.147. As for RRIRCRPPRLPRPRPRPWCLPRP, the figure is -0.339; as for RRIRMRPPRLPRPRPRPSQAPRP, 0.689. On to RRIRTRPPRLPRPRPRPHYAPRP, for which the “shrunken log2 fold change” value is -0.11.

As to RRIRYRPPRLPRPRPRPWVAPRP, the “shrunken log2 fold change” value was -0.481.

Consider RRIRPRPPRLPRPRPRPYRTPRP, for which the “shrunken log2 fold change” value is -0.111. As for RRIRTRPPRLPRPRPRPLRKPRP, the “shrunken log2 fold change” value worked out at 0.258.

In the case of RRIRKRPPRLPRPRPRPSCRPRP, the “shrunken log2 fold change” value is 0.0107. As to RRIRARPPRLPRPRPRPMNKPRP, the “shrunken log2 fold change” value is -0.00986. Turning to RRIRFRPPRLPRPRPRPWFAPRP, the “shrunken log2 fold change” value was -0.582. As for RRIRTRPPRLPRPRPRPVTKPRP, the figure is 0.0906; as for RRIRFRPPRLPRPRPRPPDLPRP, -0.329.

Regarding RRIRFRPPRLPRPRPRPCRVPRP, the “shrunken log2 fold change” value is -0.129. Regarding RRIRMRPPRLPRPRPRPNHYPRP, the “shrunken log2 fold change” value is -0.352. For the sequence RRIRDRPPRLPRPRPRPMDNPRP, the “shrunken log2 fold change” value was -0.0115. For the sequence RRIRNRPPRLPRPRPRPTRKPRP, the “shrunken log2 fold change” value is 0.623.

Consider RRIRLRPPRLPRPRPRPFPYPRP, for which the “shrunken log2 fold change” value was 0.015. As for RRIRWRPPRLPRPRPRPSHEPRP, the figure is 0.0227; as for RRIRYRPPRLPRPRPRPTTAPRP, -0.415; as for RRIRYRPPRLPRPRPRPGWFPRP, -0.112. Turning to RRIRWRPPRLPRPRPRPLAGPRP, the “shrunken log2 fold change” value was 0.493.

As for RRIRQRPPRLPRPRPRPSTLPRP, the “shrunken log2 fold change” value was -0.319. Then RRIRKRPPRLPRPRPRPTDCPRP, with -0.0167; and RRIRMRPPRLPRPRPRPALMPRP, with 0.114. For RRIRWRPPRLPRPRPRPIWPPRP, the “shrunken log2 fold change” value stood at 0.684.

In the case of RRIRKRPPRLPRPRPRPKWWPRP, the “shrunken log2 fold change” value is 0.238. As for RRIRCRPPRLPRPRPRPGFTPRP, the “shrunken log2 fold change” value is -0.131. Consider RRIRNRPPRLPRPRPRPAMHPRP, for which the “shrunken log2 fold change” value was -0.273.

In the case of RRIRLRPPRLPRPRPRPHFPPRP, the “shrunken log2 fold change” value amounted to 2.38. Then RRIRNRPPRLPRPRPRPFCVPRP, with -0.0352; and RRIRFRPPRLPRPRPRPKFRPRP, with -0.0326.

For the sequence RRIRKRPPRLPRPRPRPWYYPRP, the “shrunken log2 fold change” value is -0.198. As for RRIRPRPPRLPRPRPRPWISPRP, the “shrunken log2 fold change” value was -0.161. As for RRIRDRPPRLPRPRPRPANDPRP, the figure is -0.176. As for RRIRQRPPRLPRPRPRPGQRPRP, the figure is 0.0565; as for RRIRFRPPRLPRPRPRPMEEPRP, 0.279; as for RRIRTRPPRLPRPRPRPTCQPRP, 0.234. With RRIRRRPPRLPRPRPRPDCYPRP, the “shrunken log2 fold change” value is -0.236.

Turning to RRIRFRPPRLPRPRPRPWPYPRP, the “shrunken log2 fold change” value is 0.0261. Regarding RRIRIRPPRLPRPRPRPQHLPRP, the “shrunken log2 fold change” value was -0.542.

In the case of RRIRMRPPRLPRPRPRPGLSPRP, the “shrunken log2 fold change” value stood at 0.795. Then RRIRKRPPRLPRPRPRPVWNPRP, with -0.106; and RRIRDRPPRLPRPRPRPVMPPRP, with -0.189.

For RRIRSRPPRLPRPRPRPVRNPRP, the “shrunken log2 fold change” value was 0.0299. Then RRIRNRPPRLPRPRPRPGTLPRP, with -0.0615; and RRIRVRPPRLPRPRPRPECNPRP, with -0.195; and RRIRDRPPRLPRPRPRPNMNPRP, with -0.41.

RRIRQRPPRLPRPRPRPLEFPRP: the “shrunken log2 fold change” value was 0.052. As for RRIRMRPPRLPRPRPRPHYPPRP, the figure is -0.303. In the case of RRIRRRPPRLPRPRPRPWTRPRP, the “shrunken log2 fold change” value is -0.0224. On to RRIRQRPPRLPRPRPRPEVAPRP, for which the “shrunken log2 fold change” value amounted to 0.00859. Regarding RRIRWRPPRLPRPRPRPVKMPRP, the “shrunken log2 fold change” value stood at 0.125. On to RRIRVRPPRLPRPRPRPATAPRP, for which the “shrunken log2 fold change” value was determined as 0.18. As for RRIRQRPPRLPRPRPRPIIRPRP, the figure is 0.00525; as for RRIRIRPPRLPRPRPRPHTDPRP, -0.777. On to RRIRERPPRLPRPRPRPMHRPRP, for which the “shrunken log2 fold change” value is -0.157.

On to RRIRQRPPRLPRPRPRPPEMPRP, for which the “shrunken log2 fold change” value was -0.162. On to RRIRRRPPRLPRPRPRPNGTPRP, for which the “shrunken log2 fold change” value was 0.219. Regarding RRIRHRPPRLPRPRPRPNGRPRP, the “shrunken log2 fold change” value is -9.3e-05.
